Experimental findings from the nanobody polyreactivity screen of Harvey et al. (2022) are described below.

The nature of this series: yeast display, Sf9 membrane polyspecificity reagent, FACS + sequencing; frameworks hold sequencing errors. In a few lines:
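Galactose-induced (36–48 hours) yeast carrying a synthetic nanobody display library were exposed to 10% biotinylated, detergent-solubilized Sf9 membrane reagent at 4 °C for 1 hour. FACS followed streptavidin microbead enrichment, using low and high (top ~1%) gates for expression (anti-HA) and reagent binding (streptavidin). Colony PCR, MiSeq 2 × 250 sequencing and CDR-length filtering followed. Labels for polyreactivity reflect the gate of origin.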
“QVQLVESGGGLVQAGGSLRLSCAASGSIFYSYAMGWYRRAPGKERELVARITSSTGRTYYADSVKGRFTISRDNAKNTVYLQMNSLKAEDTAVYYCNVVVKGAWDYYPYDYWGQGTQVTVSS”: the “polyreactivity (PSR sort gate)” value was “high polyreactivity”.

Consider “QVQLVESGGGLVQAGGSLRLSCAASGSIFYSYVMGWYRQAPGKERELVAAITTGGSTYYADSVKGRFTISRDNAKNTVYLQMNSLKPEDTAVYYCAAELVGTEYDYWGQGTQVTVSS”, for which the “polyreactivity (PSR sort gate)” value is given as “low polyreactivity”.

In the case of “QVQLVESGGGLVQAGGSLRLSCAASGSIFYTNAMGWYRQAHGKERELVAAIRTGGSTNYADSVKGRFTISRDNAKNTDYLQMNSLTPDDTAVYYCNADVYIRDLFYPYIYTYDYWGQGTQVTVSS”, the “polyreactivity (PSR sort gate)” value was “low polyreactivity”.

With “QVQLVESGGGLVQAGGSLRLSCAASGSIFYTNDMGWYRQAPGKERELVAAIRYSGVSTYYADSVKGRFTISRDNAKNTVYLQMNSLKPEDTAVYYCATTAYGYRSYSQSQQDMEYWGQGTQVTVSS”, the “polyreactivity (PSR sort gate)” value was “high polyreactivity”.

Regarding “QVQLVESGGGLVQAGGSLRLSCAASGSIFYVNAMGWNRQPPGKERELVAGITSGGRTNYADSVKGRFTISRDNAKNSVYLQMNSLKPEDTAVYYCATEIRITGLYRYDYWGQGTQVTVSS”, the “polyreactivity (PSR sort gate)” value is “low polyreactivity”.

As for “QVQLVESGGGLVQAGGSLRLSCAASGSIFYVNGMGWYRQAPGKERELVARITLSGTSTYYADSVKGRFTISRDNAKNTVYLQRNSLKPEDPAVYYCAAPYFTYGQDEDEYWGQGTQGTVSS”, the “polyreactivity (PSR sort gate)” value is recorded as “low polyreactivity”.

Consider “QVQLVESGGGLVQAGGSLRLSCAASGSIFYVYAMGRYRQAPGKERELVASITRRRTNYADSVKVRFTISRDNAKNTVYLQMNSLKPEDTAVYYCAATTYVRQYATYDYWGQGTQVTVSS”, for which the “polyreactivity (PSR sort gate)” value was “high polyreactivity”.

Regarding “QVQLVESGGGLVQAGGSLRLSCAASGSIFYVYAMGRYRQAPGTEWELVAAISSGDISYYADSVKGRFTISRDNAKNTVYLQKNSLKPEDTAVYYCNAERLGNTLSPGGDDYWGQGTQVTVSS”, the “polyreactivity (PSR sort gate)” value is “low polyreactivity”.

Regarding “QVQLVESGGGLVQAGGSLRLSCAASGSIFYVYAMGWYIQAPGKERELVASIRWIGDRTYYADSVKGRFTISRDNAKNTVYLQMNSLKPEDTAVYYCAADPRYYGYYYLTPRYYYWGQGTQVTVSS”, the “polyreactivity (PSR sort gate)” value is listed as “high polyreactivity”.

With “QVQLVESGGGLVQAGGSLRLSCAASGSIFYVYAMGWYRQAPGKERELVAAINTSGGSTFYADSVKGRFTISRDNAKNTVYLQMNSLKPEDTAVYYCAAERFRYRSTDTMGYWGQGTQVTVSS”, the “polyreactivity (PSR sort gate)” value was “low polyreactivity”.

As for “QVQLVESGGGLVQAGGSLRLSCAASGSIFYVYAMGWYRQAPGKERELVAAISRRGARTYYADSVKGRFTISRDTAKYPVYLQMNSLQPEDTAVYYCNADQYSTVGYSAEYEYWGHGTQVTVSS”, the “polyreactivity (PSR sort gate)” value is listed as “low polyreactivity”.

In the case of “QVQLVESGGGLVQAGGSLRLSCAASGSIFYVYAMGWYRQAPGKERELVAAITSSGTTNYADSVKGRFTISRDNAKNTVYLQMNSLKPEDTAVYYCAADFYYYKKQYDYWGQGTQVTVSS”, the “polyreactivity (PSR sort gate)” value was “low polyreactivity”.

For “QVQLVESGGGLVQAGGSLRLSCAASGSIFYVYAMGWYRQAPGKERELVADITTRDGDTYYADSVKGRFTISRDNAKNTVYLQMNSLKPEDTAVYYCAADLNAYPQRAYDYWGQGTQVTVSS”, the “polyreactivity (PSR sort gate)” value was “low polyreactivity”.

“QVQLVESGGGLVQAGGSLRLSCAASGSIFYVYAMGWYRQAPGKEREMVAAISKSGGSTYYADSVKGRFTISRDNAKNTVYLQMNSLKPEDTADYYCAAYFSYGSIIEDYWGQGTQVTVSS”: the “polyreactivity (PSR sort gate)” value was “low polyreactivity”.

As to “QVQLVESGGGLVQAGGSLRLSCAASGSIFYWNAMGWYRQAPGKEREFVADISQSGDSTYYADSVKGRFTISRDNAKNTVYLQMNSLKQEDTAVYYCAAQFLSYAWDYDYWGQGTQVTVSS”, the “polyreactivity (PSR sort gate)” value is “low polyreactivity”.

In the case of “QVQLVESGGGLVQAGGSLRLSCAASGSIFYWNAMGWYRQAPGKERELVAGISQRGGRTSYADSVKGRFTISRDNAKNTVYLQMNSLKPEDTAVYYCAATSVYPRSGSSRYDYWGQGTQVTVSS”, the “polyreactivity (PSR sort gate)” value is listed as “low polyreactivity”.

For the sequence “QVQLVESGGGLVQAGGSLRLSCAASGSIFYWNAMGWYRQAPWKERELVASINWSGSTYYADSVKGSFTISRDNAKNTVYLQMNSLKPEDTAVYYCNTDPRVSDASADMEYWGQGTQVTVSS”, the “polyreactivity (PSR sort gate)” value is “high polyreactivity”.

Take “QVQLVESGGGLVQAGGSLRLSCAASGSIFYWYAMGWYRQAPGKERELVAAISRNGGNTYYADSVKGRFTISRDNAKNTVYLQMNSLKPEDTAVYYCAVAGTVLSHMGYWGQGTQVTVSS”: the “polyreactivity (PSR sort gate)” value is “low polyreactivity”.

As to “QVQLVESGGGLVQAGGSLRLSCAASGSIFYWYAMGWYRQAPGKERELVAAISSGGSTNYADSVKGRFTISRDNAKNTVYLQMNSLKPEDTAVYYCNADIRSFYWEYYTGLDSWGQGTQVTVSS”, the “polyreactivity (PSR sort gate)” value was “low polyreactivity”.

As to “QVQLVESGGGLVQAGGSLRLSCAASGSIFYWYAMGWYRQAPGKERELVAAISSSGSTNYADSVKGRFTISRDNAKNTVYLQMNSLKPEDTAVYYCAAYRTGYNGWGYGYWGQGTQVTVSS”, the “polyreactivity (PSR sort gate)” value is “high polyreactivity”.

In the case of “QVQLVESGGGLVQAGGSLRLSCAASGSIFYYAMGWYRQAPGKERELVAAISSGGRTNYADSVKGRFTISRDNAKNTVYLQMNSLKPEDTAVYYCAAVSPYGSQYGYWGQGTQVTVSS”, the “polyreactivity (PSR sort gate)” value is “high polyreactivity”.

For “QVQLVESGGGLVQAGGSLRLSCAASGSIFYYAMGWYRQAPGKERELVATISASGGSTYYADSVKGRFTISRDNEKNTVYLQMNSLKAEDTAVYYCAVRYKSWYGFNYWGQGTQVTVSS”, the “polyreactivity (PSR sort gate)” value is reported as “high polyreactivity”.

Turning to “QVQLVESGGGLVQAGGSLRLSCAASGSIFYYKYAMGWYRQAPGKERELVAAITSTGGTTYYADSVKGRFTISRDNAKNTVYLQMNSLKPEDTAVYYCAALAPYIGGVDYDYWGQGTQVTVSS”, the “polyreactivity (PSR sort gate)” value is reported as “low polyreactivity”.

Consider “QVQLVESGGGLVQAGGSLRLSCAASGSIFYYNAMGWFRQAGGKERELVAALSWSGGSTYYADSVKGRYTISRDNATNTVSLQMNSLKPEETAVYYCNAVGWYTYFSGSRKYNSWGQGTQVTVSS”, for which the “polyreactivity (PSR sort gate)” value is “low polyreactivity”.

In the case of “QVQLVESGGGLVQAGGSLRLSCAASGSIFYYNAMGWYRQAPGKERELVAAISQRGTRTYYADSVKGRFTISRDNAKNTVYLQMNSLKPEVTAVYYCAAESSSYYGYYIYYYWGQGTQVTVSS”, the “polyreactivity (PSR sort gate)” value was “high polyreactivity”.

Take “QVQLVESGGGLVQAGGSLRLSCAASGSIFYYNAMGWYRQAPGKERELVAAISVSGGSTYYADSVKGRFTISRDNAKNTVYLQMNSLKPEDTAVYYCAAEWLYYYWLPGRADYLEYDYWGQGTQVTVSS”: the “polyreactivity (PSR sort gate)” value is given as “low polyreactivity”.

“QVQLVESGGGLVQAGGSLRLSCAASGSIFYYNAMGWYRQAPGKERELVASISERGGITRYADSVKGRFTISRDNAKNTVYLQMNSLKREDTAVYYCNRSISLTFYAYAGYFLALDYWGQGTQVTVSS”: the “polyreactivity (PSR sort gate)” value is “low polyreactivity”.

On to “QVQLVESGGGLVQAGGSLRLSCAASGSIFYYNAMGWYRQAPGKERELVATIRSGGNTNYADSVKGRFTISRDNAKNTVYLQMNSLKPEDTAVYYCAARGAYHGYRYDSWGQGTQVTVSS”, for which the “polyreactivity (PSR sort gate)” value is “low polyreactivity”.

Regarding “QVQLVESGGGLVQAGGSLRLSCAASGSIFYYNAMGWYRQAPGTERELVAAITSSGGSTYADSVKGRFTISRDNAKNTVYLQMNSLKPEDTAVYYCATVAHGLWSGSGYIYAYDYWGQGTQVTVSS”, the “polyreactivity (PSR sort gate)” value is “low polyreactivity”.

As for “QVQLVESGGGLVQAGGSLRLSCAASGSIFYYNAMGWYRQAPGTERELVAAITSSGGSTYYADSVKGRFTISRDNAKNTVYLQMNSLKPEDTAVYYCNADQDAYYLVYIATYDYWGQGTQVTVSS”, the “polyreactivity (PSR sort gate)” value is “low polyreactivity”.

As for “QVQLVESGGGLVQAGGSLRLSCAASGSIFYYNTMGRYRQAPGKERELVAAIRFDDGSTYYADSVKGRFTISRDNAKNTVYLQMNSLKPEDTAVYYCAADWIVVSEFGLDYHMDYWGQGTQVTVSS”, the “polyreactivity (PSR sort gate)” value was “low polyreactivity”.

“QVQLVESGGGLVQAGGSLRLSCAASGSIFYYTNTMGWYRQAPGKERELFAAISSSGGTTYADSVKGRFTISRDYSKNTVYLQMNSLKPEDSAVYYCALDCVLKTYVRGTYDYWGQGTQVTVSS”: the “polyreactivity (PSR sort gate)” value is “high polyreactivity”.

“QVQLVESGGGLVQAGGSLRLSCAASGSIFYYYAMGWYRLAAGKERELVAAINSGGSTYADSVKGRFSISRDNAKNTVYLQMNSLIPEDSAVYYSATDIHSVDNNRDKHDYDYWGQGTQVTVSS”: the “polyreactivity (PSR sort gate)” value was “low polyreactivity”.

As for “QVQLVESGGGLVQAGGSLRLSCAASGSIFYYYAMGWYRQAPGKERELVAAISRSGGSTYYADSVKGRFTISRDNAKNTVYLQMNSLKPEDTAVYYCNVAYGLQPYDYWGQGTQVTVSS”, the “polyreactivity (PSR sort gate)” value is reported as “high polyreactivity”.

Regarding “QVQLVESGGGLVQAGGSLRLSCAASGSIFYYYAMGWYRQAPGKERELVAAISTSSGRTYYADSVKGRFTISRDNAKNTVYLQMNSLKPEDTAVYYCATRYRRDGGSWGQGTQVTVSS”, the “polyreactivity (PSR sort gate)” value was “high polyreactivity”.

As to “QVQLVESGGGLVQAGGSLRLSCAASGSIFYYYAMGWYRQAPGKERELVAAISYGGTRTYYADSVKGRFTISRDNAKNTVYLQMNSLKPEDTAVYYCAASQYSFKGRDYDYWGQGTQVTVSS”, the “polyreactivity (PSR sort gate)” value is “low polyreactivity”.

Take “QVQLVESGGGLVQAGGSLRLSCAASGSIFYYYAMGWYRQAPGKERELVAAITVSGGRTYYADSVKGRFTISRDNAKNTVYLQMNSLKPEDTAVYYCAAQIYGKYDYWGQGTQVTVSS”: the “polyreactivity (PSR sort gate)” value is given as “low polyreactivity”.

As to “QVQLVESGGGLVQAGGSLRLSCAASGSIFYYYAMGWYRQAPGKERELVAAITVSGGSTYYADSVKGRFTISRDNAKNTVYLQMNSLKPEDTAVYYCAAVSLFRDSQFDYWGQGTQVTVSS”, the “polyreactivity (PSR sort gate)” value is reported as “low polyreactivity”.

“QVQLVESGGGLVQAGGSLRLSCAASGSIFYYYAMGWYRQAPGKERELVASITSGGRTYYADSVKGRFTISRDNAKNTVYFQMNSLKPEDTAVYYCAAVYGGLTLTRNYNWGQGTQVTVSS”: the “polyreactivity (PSR sort gate)” value is “high polyreactivity”.

Consider “QVQLVESGGGLVQAGGSLRLSCAASGSIFYYYAMVWSRQAPGKERELVAAISSGGRTYYADSVKGRFTISRDNAKYTVYLQMNSLKPEDTAVYYCAAVLRSNRGGYWGQGTQVTVSS”, for which the “polyreactivity (PSR sort gate)” value is on record as “high polyreactivity”.
